83 variants from the RNAGym collection of RNA variant scans (doi:10.1021/acssynbio.7b00057) can be followed below.

The chains are these.
B1: Pistol ribozyme (parent)
chain: GGGUCGUUGUUCCAUAAUCGCGUGGAUAUGGCACGCAAGUUUCUACCGGGCACCGUAAAUGUCCGACUGGAGCCGUUCGGGCGGCUAUAAACAGACCUCAGGCCCGAAGCGUGGCGGCACCUGCCGCCGGUGGUAAAAAAGAUCGGAAGAGCACACGUCU

The variants in the data set derive from B1. As to the kind of experiment: aptazyme ON/OFF ratio, guanine; higher = stronger switching; co-transcriptional cleavage with and without guanine.
As to U8G G9C U10C U11A C12G C13G, the “aptazyme ON/OFF ratio” value worked out at 1.1.
U8A G9C U10A C12U: the “aptazyme ON/OFF ratio” value was found to be 1.14.
Consider U8A G9A U10A U11C C12U C13U, for which the “aptazyme ON/OFF ratio” value came to 1.15.
The result for U7G U8C G9A U10C U11C C12G reads 1.16.
As for U7C U10G U11G C12U C13U, the “aptazyme ON/OFF ratio” value came to 1.3.
On to U7C U8C G9U U10C C12U C13G, for which the “aptazyme ON/OFF ratio” value came out at 1.1.
In the case of U8A G9C U10C U11C C12U, the “aptazyme ON/OFF ratio” value came out at 1.
Take U7A U10G U11C C12U C13U: the “aptazyme ON/OFF ratio” value stood at 1.21.
On to U8C G9U U10C U11G C13A, for which the “aptazyme ON/OFF ratio” value was determined as 1.23.
For the variant U7A U8A G9A U10G U11G C12G, the “aptazyme ON/OFF ratio” value amounted to 1.52.
With U7A U8G G9C C12G C13A, the “aptazyme ON/OFF ratio” value worked out at 1.36.
The result for U7A U11A C12A C13U reads 1.41.
U8A G9U U11C C12U C13A: the “aptazyme ON/OFF ratio” value is 1.2.
In the case of U8C U10G C12A C13U, the “aptazyme ON/OFF ratio” value was determined as 1.11.
As for U7A G9U U10C C12U C13G, the “aptazyme ON/OFF ratio” value was 1.07.
For U7G U8C U10C C12A, the “aptazyme ON/OFF ratio” value came out at 1.22.
As for U7A U8G G9C U10A U11G C12A C13A, the “aptazyme ON/OFF ratio” value turned out to be 1.2.
Consider U7C U8A G9U U10G U11C C12G C13U, for which the “aptazyme ON/OFF ratio” value came out at 1.24.
With U7C U8G U11C C13G, the “aptazyme ON/OFF ratio” value worked out at 1.12.
To U7C U8A G9U U10G U11C C13A belongs 1.2; to U7A U8G U10C U11G C12A C13U, 1.19; to U7C U8A U10A U11G C12A C13U, 1.19.
U7C U8C G9U U10C U11A C12U C13U: the “aptazyme ON/OFF ratio” value stood at 1.09.
Consider U7G U8G U10G C12A C13A, for which the “aptazyme ON/OFF ratio” value is 1.51.
Turning to U8G G9C U10G U11C C12A C13U, the “aptazyme ON/OFF ratio” value came to 1.03.
With U8C G9A C13A, the “aptazyme ON/OFF ratio” value was 1.22.
As to U7G U8G G9C U11G C12G C13U, the “aptazyme ON/OFF ratio” value was found to be 1.18.
Consider U7C U8G U10A U11G C13G, for which the “aptazyme ON/OFF ratio” value stood at 1.06.
With U7A U8C G9C U11C C12U C13A, the “aptazyme ON/OFF ratio” value amounted to 1.04.
Regarding U7G U10A U11C C12U C13G, the “aptazyme ON/OFF ratio” value amounted to 1.05.
Turning to U7G U8C U10A U11G C12A C13G, the “aptazyme ON/OFF ratio” value came to 1.13.
As for U7G U8C G9U U10A U11A C12A C13A, the “aptazyme ON/OFF ratio” value was 1.29.
The result for U7G U8C G9U U10A U11A C12G C13U reads 1.19; that for U7A U8C G9C U10C U11G C12U C13G, 1.11.
Take U7G G9U U11C: the “aptazyme ON/OFF ratio” value turned out to be 4.69.
Regarding U7A U8G G9U U11C C12U, the “aptazyme ON/OFF ratio” value amounted to 1.54.
Regarding U7C U8C G9C C12A C13G, the “aptazyme ON/OFF ratio” value came to 1.06.
As to U7A U8C G9A U10G C12A C13A, the “aptazyme ON/OFF ratio” value was 1.24.
The result for U7C U8A G9C U10C U11A C12U C13A reads 1.04; that for U7C U8A G9A U10A U11A C12G C13A, 1.2; that for U8G C12G C13U, 1.55.
Turning to U7G U8C G9C U10C U11C C12G C13U, the “aptazyme ON/OFF ratio” value came out at 1.04.
In the case of U7C U8A G9C U10A U11C, the “aptazyme ON/OFF ratio” value was 1.05.
On to U7C U8A G9C U10G U11A C12U C13G, for which the “aptazyme ON/OFF ratio” value worked out at 1.13.
For U7G U8A G9C U10A U11A C13A, the “aptazyme ON/OFF ratio” value was 1.05.
Consider U8G U10C C12A C13A, for which the “aptazyme ON/OFF ratio” value was found to be 1.09.
On to U7A U8G G9C U10A U11C C12U C13A, for which the “aptazyme ON/OFF ratio” value was 1.26.
Regarding U7G U8G G9A U10G U11C C12U C13G, the “aptazyme ON/OFF ratio” value was 1.27.
To U8A G9C U11C C12U C13G belongs 1.04; to U7G G9U U10C U11G C13U, 1.38.
The result for U7G U8C G9U U10A U11G C12G C13G reads 1.13; that for U7C U8G G9A C12A C13A, 1.28.
The result for U7G U8C G9U U10C C13G reads 1.12; that for U7C U10C C12A C13A, 1.37; that for U7A U8A G9A U10C U11C C12G, 1.05.
U8A G9U U10A U11C C13U: the “aptazyme ON/OFF ratio” value was 1.02.
Consider U7A U8A G9U U10A C12G C13G, for which the “aptazyme ON/OFF ratio” value turned out to be 1.18.
For U7C U8C U10G U11C C12U, the “aptazyme ON/OFF ratio” value came out at 1.22.
As to U7C G9C U10A U11C C12G C13G, the “aptazyme ON/OFF ratio” value worked out at 1.27.
Take U8A G9U U10G U11C C13G: the “aptazyme ON/OFF ratio” value was determined as 1.04.
Consider U7G U8G U10A U11C C12G, for which the “aptazyme ON/OFF ratio” value was 1.25.
On to U7C U8C G9U U11A C12U C13G, for which the “aptazyme ON/OFF ratio” value was 1.12.
U8C G9U U10A U11G C12G C13U: the “aptazyme ON/OFF ratio” value is 1.14.
Take U7G U8C G9C U10A U11G C12G C13G: the “aptazyme ON/OFF ratio” value turned out to be 1.12.
With U7G U8A G9U U11A C12A C13G, the “aptazyme ON/OFF ratio” value was 1.11.
Turning to U8G G9A U11G C12U C13A, the “aptazyme ON/OFF ratio” value stood at 1.2.
Turning to U7G G9C U11G C12A C13U, the “aptazyme ON/OFF ratio” value was 1.47.
Turning to U8G G9U U10C U11C C12A, the “aptazyme ON/OFF ratio” value was determined as 1.04.
Turning to U7G U8G G9U U10G U11G C12G C13A, the “aptazyme ON/OFF ratio” value is 1.09.
With U8A G9U U10C U11A C12G C13U, the “aptazyme ON/OFF ratio” value is 1.14.
Take U8C G9A U10A C12A: the “aptazyme ON/OFF ratio” value was determined as 1.22.
To U7C U8G G9U U10G U11G C12A belongs 1.22; to U7C U8G U10A U11A C13A, 1.12; to U7C G9A U11C C13A, 1.07.
For the variant U7G U8A G9U U10G U11G C12A C13A, the “aptazyme ON/OFF ratio” value stood at 1.07.
As to U7A G9U U11G C12U C13G, the “aptazyme ON/OFF ratio” value amounted to 1.3.
The result for G9C U10A U11C C12G reads 1.18; that for U7A U8G G9C U10A U11A C13G, 1.15; that for U7C U8C U11G C13U, 1.3.
For the variant U8G G9C U11A C12G C13G, the “aptazyme ON/OFF ratio” value worked out at 1.1.
To U7G U8C G9C U10A U11A C12A belongs 1.19.
Regarding U7C G9A U11G C12G C13U, the “aptazyme ON/OFF ratio” value was 1.09.
The result for U7C U8A G9A C12A reads 1.32.
